From article PMC3572760 (Advances and Applications in Bioinformatics and Chemistry : …, 2013)

Assays:
[1] = biological target: 5-enolpyruvylshikimate-3-phosphate synthase (EPSPS) (Mycobacterium tuberculosis, UniProt P9WPY5); experiment: biochemical
[2] = biological target: T1, 5-enolpyruvylshikimate-3-phosphate synthase (EPSPS) (Escherichia coli, UniProt P0A6D3); format: biochemical
T1 sequence (P0A6D3 1-427): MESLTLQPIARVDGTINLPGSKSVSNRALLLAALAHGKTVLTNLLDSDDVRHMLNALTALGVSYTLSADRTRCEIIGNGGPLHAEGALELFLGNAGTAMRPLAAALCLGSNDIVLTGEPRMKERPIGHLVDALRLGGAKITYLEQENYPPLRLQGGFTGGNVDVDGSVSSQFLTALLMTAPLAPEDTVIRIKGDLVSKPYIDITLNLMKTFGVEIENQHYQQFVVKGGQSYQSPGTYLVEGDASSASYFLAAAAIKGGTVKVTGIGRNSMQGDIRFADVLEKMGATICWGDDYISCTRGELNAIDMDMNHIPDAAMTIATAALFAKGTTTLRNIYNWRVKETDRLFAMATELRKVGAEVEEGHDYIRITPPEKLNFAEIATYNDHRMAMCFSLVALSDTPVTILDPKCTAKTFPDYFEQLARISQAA

C=C(OP(=O)(O)O)C(=O)O = experiment: purified protein
[3] = test system: O=C(O)C1=C[C@@H](OP(=O)(O)O)[C@@H](O)[C@H](O)C1; experiment: purified protein
steady-state kinetics = substrate: C=C(OP(=O)(O)O)C(=O)O; experiment: steady-state kinetics; format: biochemical, Escherichia coli; conditions: PEP/glyphosate-binding pocket

5-enolpyruvylshikimate-3-phosphate synthase (EPSPS) (Mycobacterium tuberculosis, UniProt P9WPY5), sequence (P9WPY5 whole entry): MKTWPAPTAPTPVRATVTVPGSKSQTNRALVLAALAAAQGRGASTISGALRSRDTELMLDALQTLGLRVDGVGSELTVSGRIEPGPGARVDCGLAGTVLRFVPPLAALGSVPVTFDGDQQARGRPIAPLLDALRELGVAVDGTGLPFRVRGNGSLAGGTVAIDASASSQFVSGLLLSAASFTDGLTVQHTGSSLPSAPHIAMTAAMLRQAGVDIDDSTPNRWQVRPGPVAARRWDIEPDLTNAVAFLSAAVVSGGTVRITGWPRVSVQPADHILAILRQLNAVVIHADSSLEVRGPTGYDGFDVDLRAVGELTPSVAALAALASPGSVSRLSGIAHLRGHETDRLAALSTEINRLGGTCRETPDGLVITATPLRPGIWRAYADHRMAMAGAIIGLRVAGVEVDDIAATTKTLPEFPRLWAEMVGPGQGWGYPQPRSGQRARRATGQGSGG

Q: What does the source list for `O=C(O)CNCP(=O)(O)O` [glyphosate, N-phosphonomethyl-glycine]?
A: IC50 [1]: 260 µM; IC50 [2]: 3 µM

Q: With “5-enolpyruvylshikimate-3-phosphate synthase (EPSPS) (Mycobacterium tuberculosis H37Rv)” as the molecule, how does the Km (C=C(OP(=O)(O)O)C(=O)O) read?
A: Its Km is 104 µM.

Q: What about the Km [3] of the same molecule?
A: Its Km is 16 µM.

B1: 5-enolpyruvylshikimate-3-phosphate synthase (EPSPS) (Escherichia coli K-12) (protein)
chain: MESLTLQPIARVDGTINLPGSKSVSNRALLLAALAHGKTVLTNLLDSDDVRHMLNALTALGVSYTLSADRTRCEIIGNGGPLHAEGALELFLGNAGTAMRPLAAALCLGSNDIVLTGEPRMKERPIGHLVDALRLGGAKITYLEQENYPPLRLQGGFTGGNVDVDGSVSSQFLTALLMTAPLAPEDTVIRIKGDLVSKPYIDITLNLMKTFGVEIENQHYQQFVVKGGQSYQSPGTYLVEGDASSASYFLAAAAIKGGTVKVTGIGRNSMQGDIRFADVLEKMGATICWGDDYISCTRGELNAIDMDMNHIPDAAMTIATAALFAKGTTTLRNIYNWRVKETDRLFAMATELRKVGAEVEEGHDYIRITPPEKLNFAEIATYNDHRMAMCFSLVALSDTPVTILDPKCTAKTFPDYFEQLARISQAA
Q: B1 was tested. Which Km (steady-state kinetics) did it give?
A: The Km was 52 µM.
